Test results from patent publication US20020151498A1.

How the values were obtained:
[1] = target: LSR alpha subunit (68 kDa) (rat) (UniProt Q9WU74); experiment: ultracentrifugation assay, in vitro translated labeled subunit with LDL, with against without oleate
[2] = target: LSR beta subunit (56 kDa) (rat) (UniProt Q9WU74); experiment: as above
LSR beta subunit (56 kDa) (rat), sequence (Q9WU74 other isoform, or with tags, fused parts or gaps limits assumed): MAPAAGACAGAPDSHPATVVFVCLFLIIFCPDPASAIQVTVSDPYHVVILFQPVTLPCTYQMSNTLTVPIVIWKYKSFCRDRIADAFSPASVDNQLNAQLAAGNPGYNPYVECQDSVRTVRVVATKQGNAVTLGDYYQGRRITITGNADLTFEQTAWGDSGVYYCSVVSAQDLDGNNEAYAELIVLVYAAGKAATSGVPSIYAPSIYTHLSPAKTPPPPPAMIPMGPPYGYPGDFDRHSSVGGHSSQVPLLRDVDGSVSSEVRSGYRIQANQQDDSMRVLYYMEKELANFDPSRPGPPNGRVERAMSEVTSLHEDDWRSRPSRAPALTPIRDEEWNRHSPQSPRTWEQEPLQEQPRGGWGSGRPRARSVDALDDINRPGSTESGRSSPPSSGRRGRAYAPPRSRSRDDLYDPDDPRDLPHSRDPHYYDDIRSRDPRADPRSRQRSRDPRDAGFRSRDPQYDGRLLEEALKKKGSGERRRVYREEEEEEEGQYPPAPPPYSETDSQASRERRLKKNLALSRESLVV

LSR alpha subunit (68 kDa) (rat), sequence (Q9WU74 whole entry): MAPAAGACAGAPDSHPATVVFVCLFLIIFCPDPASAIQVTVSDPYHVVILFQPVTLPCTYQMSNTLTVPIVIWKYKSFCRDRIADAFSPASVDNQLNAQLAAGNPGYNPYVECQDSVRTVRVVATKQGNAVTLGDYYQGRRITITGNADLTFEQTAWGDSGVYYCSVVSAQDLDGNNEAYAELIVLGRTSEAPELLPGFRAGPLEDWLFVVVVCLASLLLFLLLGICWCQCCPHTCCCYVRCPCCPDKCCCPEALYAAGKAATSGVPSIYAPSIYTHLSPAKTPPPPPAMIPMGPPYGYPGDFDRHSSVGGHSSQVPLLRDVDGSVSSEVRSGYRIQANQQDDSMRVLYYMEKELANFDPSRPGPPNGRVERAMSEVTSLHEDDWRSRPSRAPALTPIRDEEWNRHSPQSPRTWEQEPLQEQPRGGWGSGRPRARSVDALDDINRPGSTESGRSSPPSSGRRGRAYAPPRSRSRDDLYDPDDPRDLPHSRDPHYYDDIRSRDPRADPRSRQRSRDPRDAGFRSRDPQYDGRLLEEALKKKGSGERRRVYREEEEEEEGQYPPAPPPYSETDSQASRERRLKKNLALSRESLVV

LDL (low density lipoprotein) (ligand)
fold enhancement of binding in the presence of oleate [1]: 2 fold | fold enhancement of binding in the presence of oleate [2]: 5 fold
